In paper PMC2688778 (Structure (London, England : 1993), 2009):

Target: the molecule itself
Test: crystal structure

B1: RecE^606 (P658L) (residues 606-866 of E. coli RecE protein with the P658L mutation) (domain or fragment, UniProt P15032 606-866, looked up)
chain: ENYHAGPGISKSQLDDIADTPALYLWRKNAPVDTTKTKTLDLGTAFHCRVLELEEFSNRFIVAPEFNRRTNAGKEEEKAFLMECASTGKTVITAEEGRKIELMYQSVMALPLGQWLVESAGHAESSIYWEDPETGILCRCRPDKIIPEFHWIMDVKTTADIQRFKTAYYDYRYHVQDAFYSDGYEAQFGVQPTFVFLVASTTIECGRYPVEIFMMGEEAKLAGQQEYHRNLRTLSDCLNTDEWPAIKTLSLPRWAKEYAND
stoichiometry N: 4
